Article PMC4154131, “Molecular pathogenesis of Spondylocheirodysplastic Ehlers-Danlos syndrome caused by mutant ZIP13 proteins” (EMBO Molecular Medicine, 2014)

B1: N-terminally 3xFLAG-tagged wild-type ZIP13 (natural protein, human, UniProt Q96H72 1-371, looked up)
chain: MPGCPCPGCGMAGPRLLFLTALALELLERAGGSQPALRSRGTATACRLDNKESESWGALLSGERLDTWICSLLGSLMVGLSGVFPLLVIPLEMGTMLRSEAGAWRLKQLLSFALGGLLGNVFLHLLPEAWAYTCSASPGGEGQSLQQQQQLGLWVIAGILTFLALEKMFLDSKEEGTSQAPNKDPTAAAAALNGGHCLAQPAAEPGLGAVVRSIKVSGYLNLLANTIDNFTHGLAVAASFLVSKKIGLLTTMAILLHEIPHEVGDFAILLRAGFDRWSAAKLQLSTALGGLLGAGFAICTQSPKGVVGCSPAAEETAAWVLPFTSGGFLYIALVNVLPDLLEEEDPWRSLQQLLLLCAGIVVMVLFSLFVD
notes: ZIP13 (SLC39A13) zinc transporter, human, wild type; construct as previously described (Fukada et al, 2008); The 3xFLAG precedes the signal peptide; also called F-WT; F-ZIP13; source: 293T, transfected, in lysate; not shown: 3xFLAG, N-terminal, kept

Columns and labels:
[1] = target: N-terminally 3xFLAG-tagged G64D mutant ZIP13 (human); assay: native gel or EMSA; blue native-PAGE of lysates of 293T cells expressing F-WT or F-G64D
[2] = target: the molecule itself; assay: as above

Molecule | stoichiometry N [1] | stoichiometry N [2]
N-terminally 3xFLAG-tagged G64D mutant ZIP13 (natural protein) | 2 | 
B1 |  | 2
